According to US20190062420A1 (Janssen / Centocor, published 2019):

Assays:
[1] = biological target: T1, human FcγRIIB (NM_004001) expressed on cells (human, UniProt P31994 43-310); assay: flow cytometry; Expi293F cells transfected with FcγRIIB
T1 construct: Transiently expressed on Expi293F cells; also called Expi293F FcγRIIB; HEK293F cells expressing FcγRIIB
T1 sequence: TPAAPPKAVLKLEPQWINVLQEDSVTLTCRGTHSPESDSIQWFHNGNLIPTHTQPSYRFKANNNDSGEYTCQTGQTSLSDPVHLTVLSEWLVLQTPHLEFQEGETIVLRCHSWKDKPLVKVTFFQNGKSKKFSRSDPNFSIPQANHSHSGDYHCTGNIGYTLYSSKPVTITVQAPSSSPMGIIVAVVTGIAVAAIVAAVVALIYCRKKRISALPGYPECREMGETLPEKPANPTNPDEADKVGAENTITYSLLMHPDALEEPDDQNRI
Method: (§1) Plasmids expressing cDNAs encoding human FcγRI (NM_000566) (SEQ ID NO: 44), FcγRIIA (NM_021642) (SEQ ID NO: 2), FcγRIIB (NM_004001) (SEQ ID NO: 3), and FcγRIIIA (NM_000569) (SEQ ID NO: 45) (Origene) were transiently transfected into Expi293F cells by ExpiFectamine293 transfection kit (Life Technologies). Flow cytometry assays were performed 48 h after transfection.
(§2) 2×10⁵ cells per well were seeded in 96-well plate and blocked in BSA Stain Buffer (BD Biosciences, San Jose, USA) for 30 min at 4° C. Cells were incubated with test mAbtyrin on ice for 1.5 h at 4° C. After being washed twice with BSA stain buffer, the cells were incubated with R-PE labeled anti-human or anti-mouse IgG secondary antibody (Jackson Immunoresearch Laboratories) for 45 min at 4° C. The cells were washed twice in stain buffer and then resuspended in 150 μL of Stain Buffer containing 1:200 diluted DRAQ7 live/dead stain (Cell Signaling Technology, Danvers, USA). PE and DRAQ7 signals of the stained cells were detected by Miltenyi MACSQuant flow cytometer (Miltenyi Biotec, Auburn, USA) using B2 and B4 channel respectively. Live cells were gated on DRAQ7 exclusion and the geometric mean fluorescence signals were determined for at least 10,000 live events collected. FlowJo software (Tree Star) was used for analysis. Data was plotted as the logarithm of antibody concentration versus mean fluorescence signals. Nonlinear regression analysis was performed by GraphPad Prism 6 (GraphPad Software, Inc.) and EC₅₀ values were calculated.

[2] = biological target: T2, human OX40 expressed on HEK-Blue: OX40 cells (human, UniProt P43489 29-277); assay: flow cytometry; HEK-Blue: OX40 cells
T2 construct: also called CD134
T2 sequence: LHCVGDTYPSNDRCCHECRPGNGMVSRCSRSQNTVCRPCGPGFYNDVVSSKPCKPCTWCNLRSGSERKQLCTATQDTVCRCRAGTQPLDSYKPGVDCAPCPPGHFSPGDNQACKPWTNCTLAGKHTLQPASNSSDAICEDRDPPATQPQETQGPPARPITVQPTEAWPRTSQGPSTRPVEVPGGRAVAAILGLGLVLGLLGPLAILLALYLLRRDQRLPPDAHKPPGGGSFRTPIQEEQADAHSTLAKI
Method: as §2
The binding of mAbtyrins on OX40 expressed on cell surface were investigated by flow cytometry assay described for testing mAbtyrin binding to FcγR. A stable HEK-Blue reporter cell line expressing human OX40 (HEK-Blue: OX40) was established by transfection OX40 expression plasmid (pUNO1-hOX40) into HEK-Blue™ Null 1 cells engineered to express a secreted embryonic alkaline phosphatase (SEAP) reporter gene under the control of NF-κB-inducible promoter (IFN-β minimal promoter). mAbtyrins were incubated with HEK-Blue: OX40 cells and the binding was detected by flow cytometry using a PE-labeled Goat F(ab′)₂ against Human IgG(γ).

[3] = biological target: T1, human FcγRIIB (NM_004001) expressed on …; assay: flow cytometry; Raji cells (express predominantly FcγRIIB)
[4] = biological target: T3, human FcγRIIA (NM_021642) expressed on cells (human, UniProt P12318 36-317); assay: flow cytometry; Expi293F cells transfected with FcγRIIA
T3 construct: Transiently expressed on Expi293F cells; also used here for FcγRIIA on human macrophages in the ADCP assay; also called Expi293F FcγRIIA; HEK293F cells expressing FcγRIIA
T3 sequence: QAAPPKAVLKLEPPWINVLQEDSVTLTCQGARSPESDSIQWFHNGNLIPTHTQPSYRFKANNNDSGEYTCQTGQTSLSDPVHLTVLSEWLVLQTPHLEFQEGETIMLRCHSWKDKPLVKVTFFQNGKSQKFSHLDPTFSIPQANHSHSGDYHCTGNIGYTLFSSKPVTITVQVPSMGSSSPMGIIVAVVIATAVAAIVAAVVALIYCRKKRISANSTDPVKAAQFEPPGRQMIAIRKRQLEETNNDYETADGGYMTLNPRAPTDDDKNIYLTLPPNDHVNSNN
Method: as §1, §2

[5] = biological target: T3, human FcγRIIA (NM_021642) expressed on …; assay: cell-based or functional assay
[6] = biological target: T1, human FcγRIIB (NM_004001) expressed on …; assay: flow cytometry; Raji cells (express predominantly FcγRIIB); remark: listed apart in the source
Method: as §2
Raji cell is a cell line derived from B cells that express predominantly FcγRIIB. The binding of mAbtyrins on Raji cells were investigated by flow cytometry assay described for testing mAbtyrin binding to FcγR. Binding of the mAbtyrins were detected by flow cytometry using a PE-labeled Goat F(ab′) against Human IgG(γ).

[7] = biological target: T1, human FcγRIIB (NM_004001) expressed on …; assay: cell-based or functional assay

B1: OX40SF2IgG2sigma_R2BS6_HC-C (bispecific antibody)
heavy: QVQLVQSGAEVKKPGSSVKVSCKASGYTFKDYTMHWVRQAPGQGLEWIGGIYPNNGGSTYNQNFKDRVTLTADKSTSTAYMELSSLRSEDTAVYYCARMGYHGPHLDFDVWGQGTTVTVSSASTKGPSVFPLAPCSRSTSESTAALGCLVKDYFPEPVTVSWNSGALTSGVHTFPAVLQSSGLYSLSSVVTVPSSNFGTQTYTCNVDHKPSNTKVDKTVERKCCVECPPCPAPPAAASSVFLFPPKPKDTLMISRTPEVTCVVVDVSAEDPEVQFNWYVDGVEVHNAKTKPREEQFNSTFRVVSVLTVLHQDWLNGKEYKCKVSNKGLPSSIEKTISKTKGQPREPQVYTLPPSREEMTKNQVSLTCLVKGFYPSDIAVEWESNGQPENNYKTTPPMLDSDGSFFLYSKLTVDKSRWQQGNVFSCSVMHEALHNHYTQKSLSLSPGKGGGGGSGGGGSGGGGSGGGGSLPAPKNLVVSRVTEDSARLSWTAPDAAFDSFLIQYQESEKVGEAIVLTVPGSERSYDLTGLKPGTEYTVSIYGVQYAAWYLPRHHEASNPLSAIFTT
light: DIQMTQSPSSLSASVGDRVTITCKASQDVGAAVAWYQQKPGKAPKLLIYWASTRHTGVPSRFSGSGSGTDFTLTISSLQPEDFATYYCQQYINYPLTFGGGTKVEIKRTVAAPSVFIFPPSDEQLKSGTASVVCLLNNFYPREAKVQWKVDNALQSGNSQESVTEQDSKDSTYSLSSTLTLSKADYEKHKVYACEVTHQGLSSPVTKSFNRGEC
notes: mAbtyrin: anti-OX40 antibody OX40SF2, effector silent IgG2sigma, with linker and R2BS6 FN3 domain at the C-terminus of the heavy chain; also called mAbtyrin
[1]
  EC50: 1.56 µg/mL
[2]
  Binding to HEK-Blue: OX40 cells (mean signal at 1 µg/ml): 10400 mean fluorescence signal
[3]
  fold binding signal over OX40SF2IgG2sigma at 10 µg/mL: ≥ 6 fold
[4]
  EC50: 0.7 µg/mL
[5]
  % OX40 cell killed by macrophages (ADCP, 1 µg/ml): 82%
[6]
  Binding to Raji cells mean signals at 10 µg/ml: 5380 mean fluorescence signal
  EC50: > 10 µg/mL
[7]
  % activity at 1 µg/ml with Raji cells (HEK-Blue: OX40 NF-κB reporter, relative to 1 µg/ml OX40 ligand): 83.5%
  fold of agonism enhancement upon crosslinking (Raji cells): 17 fold
